We go through two substances from US20140286859A1.

Experiment [1] concerns the target prostate specific membrane antigen (PSMA), full-length human (human) (UniProt Q04609). Briefly: fraction of radiolabeled mAb bound to excess cells, PSMA-3T3.
The target is the same in experiment [2]. The experiment in a line: fraction of radiolabeled mAb bound to excess cells, average of runs.
The target is the same in experiment [3]. The experiment in a line: fraction of radiolabeled mAb bound to excess cells, PSMA-3T3 (bracket: 3T3 control).
Experiment [4] shares this target. Briefly: cell-based or functional assay.

prostate specific membrane antigen (PSMA), full-length human (human), sequence (Q04609 whole entry): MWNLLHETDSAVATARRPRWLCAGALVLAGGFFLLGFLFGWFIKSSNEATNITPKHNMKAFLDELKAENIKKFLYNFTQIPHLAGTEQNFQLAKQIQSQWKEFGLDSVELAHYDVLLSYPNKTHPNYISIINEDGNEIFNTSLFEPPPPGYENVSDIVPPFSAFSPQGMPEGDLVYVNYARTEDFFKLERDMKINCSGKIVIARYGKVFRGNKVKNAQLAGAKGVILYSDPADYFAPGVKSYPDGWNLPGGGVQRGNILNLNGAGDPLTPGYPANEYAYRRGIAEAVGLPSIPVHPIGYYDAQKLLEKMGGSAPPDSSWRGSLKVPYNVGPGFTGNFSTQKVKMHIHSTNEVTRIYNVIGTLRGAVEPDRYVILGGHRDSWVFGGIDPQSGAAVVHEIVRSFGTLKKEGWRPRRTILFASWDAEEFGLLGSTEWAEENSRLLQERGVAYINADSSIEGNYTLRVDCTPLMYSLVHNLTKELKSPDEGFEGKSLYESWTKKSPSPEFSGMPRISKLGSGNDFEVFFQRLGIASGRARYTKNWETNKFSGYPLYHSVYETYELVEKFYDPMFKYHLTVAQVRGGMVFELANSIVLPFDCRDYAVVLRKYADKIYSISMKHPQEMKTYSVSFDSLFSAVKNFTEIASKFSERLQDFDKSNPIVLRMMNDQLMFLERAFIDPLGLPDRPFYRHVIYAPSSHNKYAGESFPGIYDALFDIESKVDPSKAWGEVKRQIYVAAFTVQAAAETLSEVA

“^111In mJ591 (In-111 labeled CHX-A''-DTPA mJ591) (antibody)”: the values for the Immunoreactivity (%) in experiment [1] and in experiment [3] were 58.5% and 54.9%, respectively. Moreover, the Immunoreactivity (%), average in experiment [2] amounted to 56.7%.

Turning to mJ591 (antibody), in experiment [4], the immunotoxin cytotoxicity (saporin-linked secondary antibody) on C4-2 cells, LD50 is 88.2 pM and the immunotoxin cytotoxicity (saporin-linked secondary antibody) on PSMA-3T3 cells, LD50 worked out at 89 pM.
